Measurements reported in patent US20240150440A1 (LUMEN BIOSCIENCE, published 2024).
Read-outs that look alike come from different tables or passages of the source.

Assays:
[1] = biological target: SARS-COV-2 Wuhan Reference RBD (SARS-CoV-2, UniProt P0DTC2 319-541); assay: ELISA, RBD coated
[2] = biological target: T1, recombinant SARS-CoV-2 RBD with C-terminal AviTag (SARS-CoV-2, UniProt P0DTC2 319-541); assay: BLI, biotinylated RBD on streptavidin biosensors [Cont. 8]
[3] = biological target: T1, recombinant SARS-CoV-2 RBD with …; assay: ELISA, competition with coated ACE2-Fc for RBD [Cont. 8]
[4] = biological target: T1, recombinant SARS-CoV-2 RBD with …; assay: ELISA, competition with coated ACE2-Fc for RBD [Cont. 2]
[5] = biological target: T1, recombinant SARS-CoV-2 RBD with …
[6] = biological target: T1, recombinant SARS-CoV-2 RBD with …; remark: listed apart in the source
[7] = biological target: T1, recombinant SARS-CoV-2 RBD with …; assay: ELISA, competition with coated ACE2-Fc for RBD [Cont. 5]
[8] = biological target: T1, recombinant SARS-CoV-2 RBD with …; assay: BLI, biotinylated RBD on streptavidin biosensors
[9] = biological target: T1, recombinant SARS-CoV-2 RBD with …; assay: ELISA, competition with coated ACE2-Fc for RBD
[10] = biological target: T1, recombinant SARS-CoV-2 RBD with …; remark: listed apart in the source
[11] = biological target: T1, recombinant SARS-CoV-2 RBD with …; remark: listed apart in the source
[12] = biological target: T1, recombinant SARS-CoV-2 RBD with …; assay: ELISA, competition with coated ACE2-Fc for RBD [Cont. 4]
[13] = biological target: T1, recombinant SARS-CoV-2 RBD with …; remark: listed apart in the source
[14] = biological target: T1, recombinant SARS-CoV-2 RBD with …; remark: listed apart in the source

B1: PP934 MBP-5HVZ-S3a-H2-H6 (VHH)
VHH: QVQLVESGGGLVQPGGSLRLSCAASGAAFSKNALHWFRQAPGKGREWVASITSGSGTQYMDSVKGRFTISRDNAKNTVYLQMNSLKPEDTAVYYCAALAYSGGYDYWGQGTQVTVSS
notes: Form: Dimer
- EC50 [1]: 1.07 nM
- Kd [2]: 18.4 nM
- IC50 [3]: 2.2 nM

B2: PP1149 MBP-5HVZ-PAPA-R5a-E5-H6 (VHH)
VHH: QVQLVESGGGLVQPGGSLRLSCAASGYDFDILRMAWFRQAPGKEREMVAAITSAESVNYEDSVKGRFTISRDNAKNTVYLQMNSLKPEDTAVYYCATYDYTDDYGYASWGQGTQVTVSS
notes: Form: Dimer
- EC50 [1]: 2.5 nM
- IC50 [4]: 14.2 nM

B3: PP931 MBP-5HVZ-R5a-F5-H6 (VHH)
VHH: QVQLVESGGGLVQPGGSLRLSCAASGYHASILAMHWVRQAPGKEREWVASMTWSDMTQYSDSVKGRFTISRDNAKNTVYLQMNSLKPEDTAVYYCAATYVTRDRPWTHWGQGTQVTVSS
notes: Form: Dimer
- EC50 [1]: 1.93 nM
- Kd [2]: 11.9 nM
- IC50 [3]: 5.6 nM

B4: MBP-R2C-G6-H6 (VHH, not shown: large carriers; small tags and cut ends)
VHH: QVQLVESGGGLVQPGGSLRLSCAASGSIYKYSDVHWFRQAPGKAREAVALLTGAGTTIYGDSVKGRFTISRDNAKNTVYLQMNSLKPEDTAVYYCAAGQGFKATRTFDSWGQGTQVTVSS
- Kd [5]: ~3900 nM

B5: MBP-5HVZ-R2A-C5-H6 (VHH, not shown: large carriers; small tags and cut ends)
VHH: QVQLVESGGGLVQPGGSLRLSCAASGTWGNIQYLSWFRQAPGKRREFVAAITPNNGTNYADSVKGRFTISRDNAKNTVYLQMNSLKPEDTAVYYCTAVLWYTTKEGPYDYWGQGTQVTVSS
- IC50 [6]: 13.3 nM

B6: MBP-5HVZ-R2D-A6-H6 (VHH, not shown: large carriers; small tags and cut ends)
VHH: QVQLVESGGGLVQPGGSLRLSCAASGSGASIGAMHWFRQAPGKGREWVASITSAGNTYYGDSVKGRFTISRDNAKNTVYLQMNSLKPEDTAVYYCNALAGANYESQWEEYNYWGQGTQVTVSS
- IC50 [5]: 6.3 nM
- Kd [5]: 19.6 nM

B7: PP1141 MBP-4B0F-PAPA-R5d-D4-H6 (VHH)
VHH: QVQLVESGGGLVQPGGSLRLSCAASGSDFTINAMHWFRQAPGKQREFVATITSTSSTAYRDSVKGRFTISRDNAKNTVYLQMNSLKPEDTAVYYCAAFAVRDADTAGWTARDYWGQGTQVTVSS
notes: Form: Heptamer
- IC50 [7]: 74.6 nM

B8: PP927 MBP-5HVZ-R1i-C8-H6 (VHH)
VHH: QVQLVESGGGLVQPGGSLRLSCAASGRQFGAWRMHWYRQAPGKQREWVAGITSGTSGNYADSVKGRFTISRDNAKNTVYLQMNSLKPEDTAVYYCAATSHTTYHAEYWGQGTQVTVSS
notes: Form: Dimer
- EC50 [1]: 1.43 nM
- Kd [2]: 25.2 nM
- IC50 [3]: 111 nM

B9: MBP-R2B-D5-H6 (VHH)
VHH: QVQLVESGGGLVQPGGSLRLSCAASGYADEINMVHWYRQAPGKGREFVAAIASGGSTFYADSVKGRFTISRDNAKNTVYLQMNSLKPEDTAVYYCAAIPRPSLSYAHDYAYWGQGTQVTVSS
notes: monomer
- Kd [8]: 82 nM

B10: PP1131 MBP-4B0F-PAPA-R2b-D5-H6 (VHH)
VHH: B9 VHH
notes: Form: Heptamer
- IC50 [9]: 14.5 nM

B11: R2B-D5 monomer (PP805) (VHH, not shown: large carriers; small tags and cut ends)
VHH: B9 VHH
- Kd [10]: 10 nM
- koff [10]: 0.00226 s⁻¹
- kon [10]: 226000 M⁻¹ s⁻¹

B12: PP1143 MBP-5HVZ-PAPA-R2b-D5-H6 (VHH)
VHH: B9 VHH
notes: Form: Dimer
- IC50 [9]: 8.4 nM

B13: PP1155 MPB-scTRP-PAPA-R2b-D5-H6 (VHH)
VHH: B9 VHH
notes: Form: Trimer
- IC50 [9]: 46.5 nM

B14: PP1898 Cerberbody (1-R2B-D5 and 2-S3b-C8) (other, not shown: large carriers; small tags and cut ends)
VHH 1: QVQLVESGGGLVQPGGSLRLSCAASGSIENIERMHWYRQAPGKQRELVAVIDSGGTTRYADSVKGRFTISRDNAKNTVYLQMNSLKPEDTAVYYCAAVWLTNAESTQEYWGQGTQVTVSS
VHH 2: B9 VHH
- Kd [11]: 0.4 nM
- koff [11]: 0.000218 s⁻¹
- kon [11]: 540000 M⁻¹ s⁻¹

B15: PP1176 MBP-5HVZ-PAPA-R2a-F3-H6 (VHH)
VHH: QVQLVESGGGLVQPGGSLRLSCAASGSITSINWMHWFRQAPGKDREGVASISQTGRGSYADSVKGRFTISRDNAKNTVYLQMNSLKPEDTAVYYCAAASRTGTPYNYWGQGTQVTVSS
notes: Form: Dimer
- EC50 [1]: 0.29 nM
- IC50 [9]: 10.4 nM

B16: PP1151 MBP-5HVZ-PAPA-R5d-B5-H6 (VHH)
VHH: QVQLVESGGGLVQPGGSLRLSCAASGSRDSIVAMHWYRQAPGKGREGVAGITSRWVTYYADSVKGRFTISRDNAKNTVYLQMNSLKPEDTAVYYCNAPVYYDTEWYDIWGQGTQVTVSS
notes: Form: Dimer
- IC50 [12]: 23.1 nM

B17: PP1152 MBP-5HVZ-PAPA-R5d-B6-H6 (VHH)
VHH: QVQLVESGGGLVQPGGSLRLSCAASGRILAANIVHWYRQAPGKEREGVAGITSGGGSYYADSVKGRFTISRDNAKNTVYLQMNSLKPEDTAVYYCNALGLGQSSLYRSADPYDSWGQGTQVTVSS
notes: Form: Dimer
- IC50 [12]: 4.7 nM

B18: PP1140 MBP-4B0F-PAPA-R5d-B6-H6 (VHH)
VHH: B17 VHH
notes: Form: Heptamer
- IC50 [7]: 106 nM

B19: PP1896 Cerberbody (2-R2B-D5 and 1-S3b-C8) (other, not shown: large carriers)
chain 1: QVQLVESGGGLVQPGGSLRLSCAASGYADEINMVHWYRQAPGKGREFVAAIASGGSTFYADSVKGRFTISRDNAKNTVYLQMNSLKPEDTAVYYCAAIPRPSLSYAHDYAYWGQGTQVTVSSHHHHHH
chain 2: QVQLVESGGGLVQPGGSLRLSCAASGSIENIERMHWYRQAPGKQRELVAVIDSGGTTRYADSVKGRFTISRDNAKNTVYLQMNSLKPEDTAVYYCAAVWLTNAESTQEYWGQGTQVTVSSTVILEYAHRLSQDILSDALQQWASHHHHHHHH
- Kd [13]: < 0.001 nM
- koff [13]: < 1e-07 s⁻¹
- kon [13]: 248000 M⁻¹ s⁻¹

B20: PP1897 Cerberbody (3-S3b-C8) (other, not shown: large carriers)
chain 1: QVQLVESGGGLVQPGGSLRLSCAASGSIENIERMHWYRQAPGKQRELVAVIDSGGTTRYADSVKGRFTISRDNAKNTVYLQMNSLKPEDTAVYYCAAVWLTNAESTQEYWGQGTQVTVSSHHHHHH
chain 2: B19 chain 2
- Kd [14]: 0.73 nM
- koff [14]: 0.000382 s⁻¹
- kon [14]: 521000 M⁻¹ s⁻¹

B21: PP1148 MBP-5HVZ-PAPA-R5a-C5-H6 (VHH)
VHH: QVQLVESGGGLVQPGGSLRLSCAASGDIFSINALHWFRQAPGKQREEVAAITSGGSTGYADSVKGRFTISRDNAKNTVYLQMNSLKPEDTAVYYCAAQQARGGLDSDYWGQGTQVTVSS
notes: Form: Dimer
- EC50 [1]: 0.3 nM
- IC50 [4]: 1.1 nM

B22: PP1136 MBP-4B0F-PAPA-R5a-C5-H6 (VHH)
VHH: B21 VHH
notes: Form: Heptamer
- IC50 [4]: 1.8 nM

B23: PP1160 MPB-scTRP-PAPA-R5a-C5-H6 (VHH)
VHH: B21 VHH
notes: Form: Trimer
- IC50 [4]: 2.9 nM

B24: MBP-5HVZ-R2E-D2-H6 (VHH, not shown: large carriers; small tags and cut ends)
VHH: QVQLVESGGGLVQPGGSLRLSCAASGHQLSTNATHWFRQAPGKNREFVASIGSGSSSYYADSVKGRFTISRDNAKNTVYLQMNSLKPEDTAVYYCTALGGDELDGMTYDYWGQGTQVTVSS
- IC50 [5]: 6.8 nM
- Kd [5]: 19.1 nM

B25: MBP-R2C-F6-H6 (VHH, not shown: large carriers; small tags and cut ends)
VHH: QVQLVESGGGLVQPGGSLRLSCAASGRILAANIVHWYRQAPGKEREGVAGITTGGSNYYSDSVKGRFTISRDNAKNTVYLQMNSLKPEDTAVYYCNALGLGSASGSYESWGQGTQVTVSS
- Kd [6]: ~3600 nM

B26: MBp-5HVZ-R2C-B3-H6 (VHH, not shown: large carriers; small tags and cut ends)
VHH: QVQLVESGGGLVQPGGSLRLSCAASGTYASYETIAWYRQAPGKQREKVARITGAGSSFYADSVKGRFTISRDNAKNTVYLQMNSLKPEDTAVYYCNADSIPPALRAANTGYWGQGTQVTVSS
- IC50 [6]: 1.4 nM
- Kd [6]: 33 nM
